molecular target: anm5_human PRMT5 (UniProt O14744)
Sequence (O14744 whole entry): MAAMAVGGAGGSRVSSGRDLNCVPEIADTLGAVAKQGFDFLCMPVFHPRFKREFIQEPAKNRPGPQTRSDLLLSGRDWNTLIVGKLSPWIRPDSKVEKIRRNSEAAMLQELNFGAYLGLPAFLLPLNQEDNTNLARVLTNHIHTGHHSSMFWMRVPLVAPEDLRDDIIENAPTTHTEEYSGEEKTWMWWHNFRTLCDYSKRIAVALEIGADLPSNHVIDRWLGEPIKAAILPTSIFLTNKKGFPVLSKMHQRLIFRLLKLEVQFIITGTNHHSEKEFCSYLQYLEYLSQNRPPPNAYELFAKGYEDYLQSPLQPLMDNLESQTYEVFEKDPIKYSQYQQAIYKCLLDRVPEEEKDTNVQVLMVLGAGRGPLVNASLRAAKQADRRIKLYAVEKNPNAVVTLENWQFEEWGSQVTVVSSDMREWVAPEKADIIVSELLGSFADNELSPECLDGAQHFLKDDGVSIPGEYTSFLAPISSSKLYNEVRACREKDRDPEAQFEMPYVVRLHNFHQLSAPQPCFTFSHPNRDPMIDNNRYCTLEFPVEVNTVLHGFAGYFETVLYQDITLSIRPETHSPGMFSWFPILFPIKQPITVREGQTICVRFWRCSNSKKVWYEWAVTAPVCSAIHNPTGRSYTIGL

Chain of Transcription factor E2F1 (Homo sapiens), Q01094 R109K (Q01094 whole entry R109K): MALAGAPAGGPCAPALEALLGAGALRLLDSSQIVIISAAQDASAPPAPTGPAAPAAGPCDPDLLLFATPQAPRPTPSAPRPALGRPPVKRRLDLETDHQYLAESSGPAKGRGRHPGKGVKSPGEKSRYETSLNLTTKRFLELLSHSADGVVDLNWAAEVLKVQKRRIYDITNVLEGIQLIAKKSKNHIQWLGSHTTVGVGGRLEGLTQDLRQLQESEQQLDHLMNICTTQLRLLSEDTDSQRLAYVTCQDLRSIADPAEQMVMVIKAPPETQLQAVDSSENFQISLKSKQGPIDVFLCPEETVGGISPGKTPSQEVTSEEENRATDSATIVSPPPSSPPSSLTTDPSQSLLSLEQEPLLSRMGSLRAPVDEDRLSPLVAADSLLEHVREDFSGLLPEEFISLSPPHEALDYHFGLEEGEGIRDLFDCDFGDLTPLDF
Chain of Transcription factor E2F1 (Homo sapiens), Q01094 R113K (Q01094 whole entry R113K): as the sequence (Q01094 whole entry R109K) above, with K109R, R113K counted along it
Chain of Transcription factor E2F1 (Homo sapiens), Q01094 R111K (Q01094 whole entry R111K): as the sequence (Q01094 whole entry R109K) above, with K109R, R111K counted along it

**Q.** For “Transcription factor E2F1 (Homo sapiens), Q01094 R109K”, which “effect of a mutation on the interaction” value is on record?
**A.** disrupting interaction

**Q.** For “Transcription factor E2F1 (Homo sapiens), Q01094 R111K”, which “effect of a mutation on the interaction” value is on record?
**A.** disrupting interaction

**Q.** How did the “effect of a mutation on the interaction” value turn out when “Transcription factor E2F1 (Homo sapiens), Q01094 R113K” was run?
**A.** disrupting interaction
